Experimental data: paper PMC10382678, “The collagen ColQ binds to LRP4 and regulates the activation of the Muscle-Specific Kinase–LRP4 receptor complex by agrin at the neuromuscular junction” (The Journal of Biological Chemistry, 2023)

How the values were obtained:
[1] = target: T1, purified recombinant mouse ectoLRP4 His-tag (R&D Systems) (mouse, UniProt Q8VI56 21-1725); assay: SPR; same ColQ-Flag surface; single-cycle kinetics with purified ectoLRP4-His at 296, 444, 666, 1000 and 1500 nM, 5 μl/min, 3 min association, 5 min dissociation, no regeneration; HBS-EP; 1:1 binding model with drifting baseline; n = 2; settings: one partner purified
T1 construct: low-density lipoprotein receptor-related protein 4, mouse, ectodomain; also called purified ectoLRP4; source: bought: R&D Systems
T1 sequence (Q8VI56 21-1725): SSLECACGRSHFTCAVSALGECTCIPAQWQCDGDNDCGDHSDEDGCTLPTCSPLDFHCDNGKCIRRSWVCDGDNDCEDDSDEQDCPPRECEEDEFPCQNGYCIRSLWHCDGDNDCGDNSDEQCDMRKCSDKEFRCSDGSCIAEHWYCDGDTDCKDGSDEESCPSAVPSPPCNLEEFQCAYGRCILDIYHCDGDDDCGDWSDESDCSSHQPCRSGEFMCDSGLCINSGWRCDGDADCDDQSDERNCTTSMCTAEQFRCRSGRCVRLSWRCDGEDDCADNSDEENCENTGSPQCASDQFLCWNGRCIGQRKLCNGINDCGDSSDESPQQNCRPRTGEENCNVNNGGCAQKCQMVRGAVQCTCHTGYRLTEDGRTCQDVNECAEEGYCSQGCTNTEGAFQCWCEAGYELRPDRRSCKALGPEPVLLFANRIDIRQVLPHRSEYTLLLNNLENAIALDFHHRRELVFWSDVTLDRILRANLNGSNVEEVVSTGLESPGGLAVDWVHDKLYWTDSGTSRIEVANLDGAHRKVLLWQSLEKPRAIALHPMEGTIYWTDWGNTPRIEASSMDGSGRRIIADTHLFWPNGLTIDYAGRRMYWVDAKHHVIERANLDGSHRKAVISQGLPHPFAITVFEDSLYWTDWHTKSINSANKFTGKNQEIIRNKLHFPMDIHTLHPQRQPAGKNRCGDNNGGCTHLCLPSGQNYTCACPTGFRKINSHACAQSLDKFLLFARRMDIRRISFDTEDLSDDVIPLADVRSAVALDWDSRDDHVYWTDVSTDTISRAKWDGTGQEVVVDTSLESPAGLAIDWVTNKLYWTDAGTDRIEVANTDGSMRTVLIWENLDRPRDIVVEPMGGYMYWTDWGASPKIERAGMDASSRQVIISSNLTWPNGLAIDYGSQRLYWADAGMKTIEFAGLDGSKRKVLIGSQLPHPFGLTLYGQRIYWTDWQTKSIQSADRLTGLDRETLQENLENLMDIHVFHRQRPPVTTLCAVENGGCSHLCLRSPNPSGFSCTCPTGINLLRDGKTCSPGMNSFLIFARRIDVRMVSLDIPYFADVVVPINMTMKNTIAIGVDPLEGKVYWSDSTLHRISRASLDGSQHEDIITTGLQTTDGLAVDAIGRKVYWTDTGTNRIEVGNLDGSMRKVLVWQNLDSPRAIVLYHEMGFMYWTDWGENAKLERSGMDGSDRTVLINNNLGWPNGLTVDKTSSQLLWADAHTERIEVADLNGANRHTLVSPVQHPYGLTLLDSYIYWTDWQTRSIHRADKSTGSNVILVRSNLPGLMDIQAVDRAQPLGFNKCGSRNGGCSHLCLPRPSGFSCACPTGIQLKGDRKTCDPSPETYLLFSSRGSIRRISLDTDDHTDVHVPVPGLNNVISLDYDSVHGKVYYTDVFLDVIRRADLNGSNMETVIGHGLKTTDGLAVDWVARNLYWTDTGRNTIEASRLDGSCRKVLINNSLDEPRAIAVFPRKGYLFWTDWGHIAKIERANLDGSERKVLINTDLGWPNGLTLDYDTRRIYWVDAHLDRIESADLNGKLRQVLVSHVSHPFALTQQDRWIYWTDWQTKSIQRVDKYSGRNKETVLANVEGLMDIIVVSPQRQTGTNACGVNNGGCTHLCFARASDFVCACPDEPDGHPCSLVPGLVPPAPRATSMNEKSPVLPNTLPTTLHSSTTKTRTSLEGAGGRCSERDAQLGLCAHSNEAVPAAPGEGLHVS

[2] = target: the molecule itself; assay: co-sedimentation; extracts (0.8 M NaCl, 1% CHAPS) of HEK 293T cells cotransfected with ColQ-Flag and AChE, run on 5 to 20% sucrose gradients with 0.8 M NaCl, 10 mM EDTA, 0.2% Brij-97; fractions assayed for AChE activity; profile not shown

Kd [1]: 94 nM | koff [1]: 0.0091 s⁻¹ | kon [1]: 96400 M⁻¹ s⁻¹
B1: ColQ-Flag (rat collagen Q, ColQ1a, with a Flag epitope after amino acid 26) (natural protein, UniProt O35167 23-458, looked up)
chain: QPTFINSVLPISAALPGLDQKKRGNHKACCLLMPPPPPLFPPPFFRGSRSPLLSPDMKNLLELEASPSPCMQGSLGSPGPPGPQGPPGLPGKAGPKGEKGDLGRPGRKGRPGPPGVPGEPGPVGWPGPEGPRGEKGDVGMMGLPGSRGPMGSKGFPGSRGEKGSRGERGDLGPKGEKGFPGFPGMLGQKGEMGPKGESGIAGHRGPTGRPGKRGKQGQKGDSGIMGPPGKPGPSGQPGRQGPPGPPGPPSAGQLVMGLKGERGFPGPPGRCLCGPPANVNNPSYGDPMYGRGSPRVPAIFVVNNQEELEKLNTQNAIAFRRDQRSLYFKDSLGWLPIQLTPFYPVGLHHKAAWHLCGDGVLQPGEECDDGNPDVSDGCIDCHRAYCGDGYRHRGVEDCDGSDFGYLKCETYLPGSYGELRCTQYCSIDSTPCRYFT
notes: Never purified on its own, only immunocaptured from lysates; source: captured from the lysate on anti-Flag beads, wells or sensor chip; not shown: Flag, internal (after residue 26), kept
stoichiometry N [2]: 3
